Measurements from the DeepSol protein solubility set.

Experiment: soluble on expression in E. coli; label from the status in PepcDB or PDB records

Soluble on expression in E. coli, soluble:
TPHLVNLNEDPLMSECLLYYIKDGITRVGQADAERRQDIVLSGAHIKEEHCIFRSERSNSGEVIVTLEPCERSETYVNGKRVSQPVQLRSGNRIIMGKNHVFRFNHPEQARAEREKT
TSRNYLLLTPGPLTTSRTVKEAMLFDSCTWDDDYNIGVVEQIRQQLTALATASEGYTSVLLQGSGSYAVEAVLGSALGPQDKVLIVSNGAYGARMVEMAGLMGIAHHAYDCGEVARPDVQAIDAILNADPTISHIAMVHSETTTGMLNPIDEVGALAHRYGKTYIVDAMSSFGGIPMDIAALHIDYLISSANKCIQGVPGFAFVIAREQKLAACKGHSRSLSLDLYAQWRCMEDNHGKWRFTSPTHTVLAFAQALKELAKEGGVAARHQRYQQNQRSLVAGMRALGFNTLLDDELHSPIITAFYSPEDPQYRFSEFYRRLKEQGFVIYPGKVSQSDCFRIGNIGEVYAADITALLTAIRTAMYWTK
TTATRQEVLGLYRSIFRLARKWQATSGQMEDTIKEKQYILNEARTLFRKNKNLTDTDLIKQCIDECTARIEIGLHY
TTILVVRRNGQTVMGGDGQVTFGSTVLKGNARKVRKLGEGKVLAGFAGSVADAMTLFDRFEAKLREWGGNLTKAAVELAKDWRTDRVLRRLEALLLVADKENIFIISGNGEVIQPDDDAAAIGSGGPYALAAAKALLRNTDLSAREIVEKAMTIAGEICIYTNQNIVIEEV
TWTYILRQGDLPPGEMQRYEGGPEPVMVCNVDGEFFAVQDTCTHGDWALSDGYLDGDIVECTLHFGKFCVRTGKVKALPACKPIKVFPIKVEGDEVHVDLDNGELK
VAIRNFDISKISGEWYSIFLASDVKEKIEENGSMRVFVDVIRALDNSSLYAEYQTKVNGECTEFPMVFDKTEEDGVYSLNYDGYNVFRISEFENDEHIILYLVNFDKDRPFQLFEFYAREPDVSPEIKEEFVKIVQKRGIVKENIIDLTKIDRCFQLRG
VALSADIVGMHYRYPDHYEVEREKIREYAVAVQNDDAWYFEEDGAAELGYKGLLAPLTFICVFGYKAQAAFFKHANIATAEAQIVQVDQVLKFEKPIVAGDKLYCDVYVDSVREAHGTQIIVTKNIVTNEEGDLVQETYTTLAGRAGEDGEGFSDGAA
VARSSKLLGWCQRQTDGYAGVNVTDLTMSWKSGLALCAIIHRYRPDLIDFDSLDEQNVEKNNQLAFDIAEKELGISPIMTGKEMASVGEPDKLSMVMYLTQFYEMFKD

Soluble on expression in E. coli, not soluble:
TPEHRAVAREVAAETFVLLKNENHLLPLEEKGKIALIGPMADARNNMCGMWSMTCTPSRHGTLLEGIRSAVGDKAEILYAKGSNVYYDAEMEKGAVGIRPLERGNDQQLLAEALRTAARADVIVAAVGECAEMSGESPSRTNLEIPDAQQDLLKALVKTGKPVVLLLFTGRPLILNWESEHIPSILNVWFGGSETGDAVADVLFGKAVPCGKLTTTFPRSVGQLPLFYNHLNTGRPDPDNRVFNRYASNYLDESNEPLYPFGYGLSYTDF
TQNPIANPLAAKKRRDHVLERLLEEHYINEEQYQNAVNQPITAKYHGTNIKVKAPYVAEMIRQSLYDNFGPEAYTKGY
TTCDELISLCDEHHMSVADVVWANETAMRSAVQVRSDLDTVWHVMRRCVQHGCNTNQTVLPGGLDVPRRAPKMYARLASNSDVLKRDGRRSDAVLESSDAAWVDLFALAVSEENAAGGRIVTAPTNGAAGVIPAVLHYYWHFVDHADEDGVVTFLLTAGAIGYLFKRNASISGAEVGCQGEVGTACSMAAAGLCAVMGGTPHQVENAAEIGIEHNLGLTCDPVGGLVQIPCIERNAMAANTAINAVRMAMLGDGTHIVSLDQAIKTMKDTGEDMMAKYKETSKGGLAVN
TTNWLNYRAGSVAYEQAAEPLELLTEARIHAQRARTDETLALVWRQSLENSNHTFSTTLKRVDKALSKPGLDPAEVAAARNAMNTWRASHEELTNFLNSGRYEEALKLTTEGPSAFTDLDAALDSLIDSTRVRLRTEIRGVDTTQVN
TTYKHSLQDLTAQRSLGAIPFAGRYRLIDFMLSNMVNADIRSVAIFPKYRYRSLMDHLGAGKEWDLHRKKDGLFFFPSPHLHHEYDEFGSFRQFSDHLDYFHRSTQQYAVISNSHTVCNIQFQYVLKRHQEVGCDVTEVFQDGQSLQIYIMSTTLLKDLIYGHSEKGYKTIQEAVEKESSALTICPYEYSGYAAVIDSVEKYYTHSMELIQPRFWQQVFLPQQPIYTKVKDEPPTKYGKHSTVKNSLVANGCVLEGEVENCILFRAVHVGKGTKLKNCIIMQKTQIGEDCLLEQVISDKDVKIGKATEAAGTAEQPLVLRKGLVQGE
VAADAYLVRRGQETKRGSGKGGASKGTPRGLSVIAGYPWFADWGRDAMIALSGLTLVTGRFEDARELLLTFLGQRRRGLIPNHFDESGQGAGYNTVARPLWLAVALERYARTTGDALFVRQALPMLRELLGSLVQGTDYGIGMDPADALLRAGEPGVQLTWMDVKIHDWVVTPRHGKPVEIQALWLAALGAELRLSQALGEPPRYAAVLERAHHSFKAQFWNHAADLTAAPTATLLGLGQLGSSLGGALSDALDGDFVLDDEPRRDTSSDALLTVGGRPGSGPVQSTTGASELGVGHRPGAAPAQPAVLADVIQPSGEQDLSVRPNAVIALALADTPVVDEQLDAVLAQTERELLTPVGLHTLSPHDPRYLGNYGGPQLLRDAAYHQGTVWPWPLASYVELLLSRGELNRARAALAGLTGHVWEAGIGHVSEVFSGDALTPGGCPFQAWSVAELLR
VADRLIVKGAREHNLRSVDLDLPRDALIVFTGLSGSGKSSLAFDTIFAEGQRRYVESLSAYARQFLGQMDKPDVDFIEGLSPAVSIDQKSTNRNPRSTVGTITEVYDYLRLLYARAGTPHCPTCGERVARQTPQQIVDQVLAMPEGTRFLVLAPVVRTRKGEFADLFDKLNAQGYSRVRVDGVVHPLTDPPKLKKQEKHDIEVVVDRLTVKAAAKRRLTDSVETALNLADGIVVLEFVDHELGAPHREQRFSEKLACPNGHALAVDDLEPRSFSFNSPYGACPECSGLGIRKEVDPELVVPDPDRTLAQGAVAPWSNGHTAEYFTRMMAGLGEALGFDVDTPWRKLPAKARKAILEGADEQVHVRYRNRYGRTRSYYADFEGVLAFLQRKMSQTESEQMKERYEGFMRDVPCPVCAGTRLKPEILAVTLAGESKGEHGAKSIAEVCELSIADCADFLNALTLGPREQAIAGQVLKEIRSRLGFLLDVGLEYLSLSRAAATLSGGEAQRIRLATQIGSGLVGVLYVLDEPSIGLHQRDNRRLIETLTRLRDLGNTLIVVEHDEDTIEHADWIVDIGPGAGEHGGRIVHSGPYDELLRNKDSITGAYLSGRESIEIPAIRRSVDPRRQLTVVGAREHNLRGIDVSFPLGVLTSVTGVSGSGKSTLVNDILAAVLANRLNGARQVPGRHTRVTGLDYLDKLVRVDQSPIGRTPRSNPATYTGVFDKIRTLFAATTEAKVRGYQPGRFSFNVKGGRCEACTGDGTIKIEMNFLPDVYVPCEVCQGARYNRETLEVHYKGKTVSEVLDMSIEEAAEFFEPIAGVHRYLRTLVDVGLGYVRLGQPAPTLSGGEAQRVKLASELQKRSTGRTVYILDEPTTGLHFDDIRKLLNVINGLVDKGNTVIVIEHNLDVIKTSDWIIDLGPEGGAGGGTVVAQGTPEDVAAVPASYTGKFLAEVVGGGASAATSRSNRRRNVSA
VAERFVVTGGNRLSGEVAVGGAKNSVLKLMAATLLAEGTSTITNCPDILDVPLMAEVLRGLGATVELDGDVARITAPDEPKYDADFAAVRQFRASVCVLGPLVGRCKRARVALPGGDAIGSRPLDMHQAGLRQLGAHCNIEHGCVVARAETLRGAEIQLEFPSVGATENILMAAVVAEGVTTIHNAAREPDVVDLCTMLNQMGAQVEGAGSPTMTITGVPRLHPTEHRVIGDRIVAATWGIAAAMTRGDISVAGVDPAHLQLVLHKLHDAGATVTQTDASFRVTQYERPKAVNVATLPFPGFPTDLQPMAIALASIADGTSMITENVFEARFRFVEEMIRLGADARTDGHHAVVRGLPQLSSAPVWCSDIRAGAGLVLAGLVADGDTEVHDVFHIDRGYPLFVENLVSLGAEIERVCC
